System: T1, MprA(D51E) D51E (Corynebacterium glutamicum ATCC 13032), ORF:c49de587
T1 sequence: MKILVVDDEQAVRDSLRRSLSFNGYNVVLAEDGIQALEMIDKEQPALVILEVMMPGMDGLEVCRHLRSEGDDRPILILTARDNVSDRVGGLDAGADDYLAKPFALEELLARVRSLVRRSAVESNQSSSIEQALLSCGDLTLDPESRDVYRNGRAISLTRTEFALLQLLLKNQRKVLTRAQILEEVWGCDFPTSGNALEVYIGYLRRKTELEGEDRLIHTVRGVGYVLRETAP
Assay: EMSA
Conditions: Buffer P: 50 mM Tris-HCl pH 7.5, 50 mM KCl, 10 mM MgCl2, 0.5 mM EDTA, 10% glycerol; 30 min at 20 C; DNA 25-107 nM, protein 0-64-fold molar excess; 6% native …

For “CGATACCCTTTTCGTCTTCCAGTCCGTGACAGACTTCCTCCCAATTAAGACGTCCACGCGTTGGAACATATTTCACTTATGCTAACACCTCTTAAGCATAAAGAAGCCAGTTACCTCCTCATTTTAAGAGAAGATAACTGGCTCTTGTTAAATTCTTACCTACAAAAGGTTGTAGGCGATGAATTTAAGGTTTAGAACTGCTCTACGTCCACGAGACCGAGCTGTGCTGCCTTAACCAGACGGCGTGGGATGCGAACGGTCTGACCGTCGATCTTGACCTCCTGAAGGGCGACATTGTCG (double strand) [mprA promoter]”, the binding was “binds”.

Source: article PMC12113857
